Test results: patent US20250382384A1

Assays:
[1] = biological target: cynomolgus MUC1 SEA domain protein (cynomolgus); assay: SPR (Biacore 2000), antibody captured, cynoMUC1 SEA analyte, 1:1 binding
[2] = biological target: full-length cynomolgus MUC1 on stably transfected cells (cynomolgus); assay: FACS on HEK293/cyno MUC1
[3] = biological target: full-length cynomolgus MUC1 on stably transfected cells (cynomolgus); assay: FACS (iQue3) on HEK293-cynoMUC1 cells

full-length cynomolgus MUC1 on stably transfected cells (cynomolgus), sequence (chain, as listed by the source limits assumed, form in doubt): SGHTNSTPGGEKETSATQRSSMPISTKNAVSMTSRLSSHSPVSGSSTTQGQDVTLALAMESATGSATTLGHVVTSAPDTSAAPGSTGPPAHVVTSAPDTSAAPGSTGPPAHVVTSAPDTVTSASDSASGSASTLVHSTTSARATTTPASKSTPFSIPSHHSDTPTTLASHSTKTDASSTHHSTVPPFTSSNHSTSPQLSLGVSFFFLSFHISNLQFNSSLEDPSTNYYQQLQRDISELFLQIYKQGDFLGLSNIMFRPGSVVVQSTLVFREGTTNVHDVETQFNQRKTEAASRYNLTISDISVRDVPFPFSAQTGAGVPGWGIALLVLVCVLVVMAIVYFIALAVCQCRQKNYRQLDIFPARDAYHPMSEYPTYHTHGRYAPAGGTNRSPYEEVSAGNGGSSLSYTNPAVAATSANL

Binder | Kd [1] [nM] | further results
BG138P-Hz0 (antibody, human IgG1, V domains shown) VH: QVQLVQSGAEVKKPGASVKVSCKASGYTFTTYTMHWVRQAPGQRLEWMGYINPGSDYTHYNQKFKDRVTITRDTSASTAYMELSSLRSEDTAVYYCARQGNYAAYYFDYWGQGTLVTVSS VL: DIQMTQSPSSLSASVGDRVTITCRASGNIHNFLVWYQQKPGKVPKLLIYNAKTLTDGVPSRFSGSGSGTDFTLTISSLQPEDVATYYCQNFWNVPFTFGQGTKLEIK | 91.7 | 
chBG346P (antibody, V domains shown) VH: EVQLQQSGAELVKPGASVKISCKASGYTFTNYWMNWVRQRPGQGLEWIGEIDPSDSYTNNNQKFKDKATLTVDKSSSTAYMQLSSLTSEDSAVYYCARGRRTGFAYWGQGTLVTVSS VL: DIQMTQSPASLSVSVGETVTITCRASENIYSNLAWYQKKQGKSPQLLVYAATNLADGVPSRFSGSGSGTQYSLKINSLQSEDFGNYYCQHFWGTPYTFGGGTKLEIK |  | EC50 [2]: 41.8 nM
chBG138P (antibody, V domains shown) VH: QVQLLQSGAELARPGASVKMSCKASGYTFTTYTMHWIKQRPGQGLEWIGYINPGSDYTHYNQKFKDKATLTADKSSSTAYMHLYSLTSEDSAVYYCARQGNYAAYYFDYWGQGTTLTVSS VL: DIQMTQSPASLSASVGETVTITCRASGNIHNFLVWYQQKQGKSPQLLVYNAKTLTDGVPSRFSGSGSGTQYSLKIKSLQPEDFGTYYCQNFWNVPFTFGSGTKLEIK |  | EC50 (read off the curve) [3]: 4 nM; EC50 [2]: 7.55 nM
BG138P-Bz10 (antibody, human IgG1, V domains shown) VH: QVQLVQSGAEVKKPGASVKVSCKASGYTFTTYTMHWIKQAPGQGLEWIGYINPGSDYTHYNQKFKDKATLTADKSASTAYMELSSLRSEDTAVYYCARQGNYAAYYFDYWGQGTLVTVSS VL: DIQMTQSPSSLSASVGDRVTITCRASGNIHNFLVWYQQKPGKSPKLLVYNAKTLTDGVPSRFSGSGSGTQYSLTISSLQPEDVATYYCQNFWNVPFTFGSGTKLEIK | 6.28 | 
BG138P-Bz1 (antibody, human IgG1, V domains shown) VH: QVQLVQSGAEVKKPGASVKVSCKASGYTFTTYTMHWVKQAPGQGLEWIGYINPGSDYTHYNQKFKDKATLTADKSASTAYMELYSLRSEDTAVYYCARQGNYAAYYFDYWGQGTLVTVSS VL: DIQMTQSPSSLSASVGDRVTITCRASGNIHNFLVWYQQKPGKSPKLLVYNAKTLTDGVPSRFSGSGSGTQYSLTISSLQPEDVATYYCQNFWNVPFTFGSGTKLEIK | 7.18 | 
BG138P-Bz11 (antibody, human IgG1, V domains shown) VH: QVQLVQSGAEVKKPGASVKVSCKASGYTFTTYTMHWIKQAPGQGLEWIGYINPGSDYTHYNQKFKDKATLTADKSASTAYMELYSLRSEDTAVYYCARQGNYAAYYFDYWGQGTLVTVSS VL: DIQMTQSPSSLSASVGDRVTITCRASGNIHNFLVWYQQKPGKVPKLLVYNAKTLTDGVPSRFSGSGSGTQYSLTISSLQPEDVATYYCQNFWNVPFTFGSGTKLEIK | 9.42 | 
BG138P-Bz4 (antibody, human IgG1, V domains shown) VH: QVQLVQSGAEVKKPGASVKVSCKASGYTFTTYTMHWIKQAPGQGLEWMGYINPGSDYTHYNQKFKDKATLTADKSASTAYMELYSLRSEDTAVYYCARQGNYAAYYFDYWGQGTLVTVSS VL: DIQMTQSPSSLSASVGDRVTITCRASGNIHNFLVWYQQKPGKSPKLLVYNAKTLTDGVPSRFSGSGSGTQYSLTISSLQPEDVATYYCQNFWNVPFTFGSGTKLEIK | 6.73 | 
BG138P-Bz14 (antibody, human IgG1, V domains shown) VH: QVQLVQSGAEVKKPGASVKVSCKASGYTFTTYTMHWIKQAPGQGLEWIGYINPGSDYTHYNQKFKDKATLTADKSASTAYMELYSLRSEDTAVYYCARQGNYAAYYFDYWGQGTLVTVSS VL: DIQMTQSPSSLSASVGDRVTITCRASGNIHNFLVWYQQKPGKSPKLLVYNAKTLTDGVPSRFSGSGSGTQFSLTISSLQPEDVATYYCQNFWNVPFTFGSGTKLEIK | 24.4 | 
BG138P-Bz16 (antibody, human IgG1, V domains shown) VH: QVQLVQSGAEVKKPGASVKVSCKASGYTFTTYTMHWIKQAPGQGLEWIGYINPGSDYTHYNQKFKDKATLTADKSASTAYMELYSLRSEDTAVYYCARQGNYAAYYFDYWGQGTLVTVSS VL: DIQMTQSPSSLSASVGDRVTITCRASGNIHNFLVWYQQKPGKSPKLLVYNAKTLTDGVPSRFSGSGSGTQYSLTISSLQPEDVATYYCQNFWNVPFTFGQGTKLEIK | 5.6 | 
BG138P-Bz7 (antibody, human IgG1, V domains shown) VH: QVQLVQSGAEVKKPGASVKVSCKASGYTFTTYTMHWIKQAPGQGLEWIGYINPGSDYTHYNQKFKDKATITADKSASTAYMELYSLRSEDTAVYYCARQGNYAAYYFDYWGQGTLVTVSS VL: DIQMTQSPSSLSASVGDRVTITCRASGNIHNFLVWYQQKPGKSPKLLVYNAKTLTDGVPSRFSGSGSGTQYSLTISSLQPEDVATYYCQNFWNVPFTFGSGTKLEIK | 4.35 | 
BG138P-Bz2 (antibody, human IgG1, V domains shown) VH: QVQLVQSGAEVKKPGASVKVSCKASGYTFTTYTMHWIRQAPGQGLEWIGYINPGSDYTHYNQKFKDKATLTADKSASTAYMELYSLRSEDTAVYYCARQGNYAAYYFDYWGQGTLVTVSS VL: DIQMTQSPSSLSASVGDRVTITCRASGNIHNFLVWYQQKPGKSPKLLVYNAKTLTDGVPSRFSGSGSGTQYSLTISSLQPEDVATYYCQNFWNVPFTFGSGTKLEIK | 6.96 | 
BG138P-Bz15 (antibody, human IgG1, V domains shown) VH: QVQLVQSGAEVKKPGASVKVSCKASGYTFTTYTMHWIKQAPGQGLEWIGYINPGSDYTHYNQKFKDKATLTADKSASTAYMELYSLRSEDTAVYYCARQGNYAAYYFDYWGQGTLVTVSS VL: DIQMTQSPSSLSASVGDRVTITCRASGNIHNFLVWYQQKPGKSPKLLVYNAKTLTDGVPSRFSGSGSGTQYTLTISSLQPEDVATYYCQNFWNVPFTFGSGTKLEIK | 6.11 | 
BG138P-Bz9 (antibody, human IgG1, V domains shown) VH: QVQLVQSGAEVKKPGASVKVSCKASGYTFTTYTMHWIKQAPGQGLEWIGYINPGSDYTHYNQKFKDKATLTADTSASTAYMELYSLRSEDTAVYYCARQGNYAAYYFDYWGQGTLVTVSS VL: DIQMTQSPSSLSASVGDRVTITCRASGNIHNFLVWYQQKPGKSPKLLVYNAKTLTDGVPSRFSGSGSGTQYSLTISSLQPEDVATYYCQNFWNVPFTFGSGTKLEIK | 6.81 | 
chBG219P (antibody, V domains shown) VH: EVQLVESGGGLVKPGGSLKLSCAASGFTFNDYIMSWVRQTPEKRLEWVATVSSGGDNTYYPDSVKGRFTISRDNAKNNLYLQMSSLRSEDTALYYCTRYGGLGAMDYWGQGTSVTVSS VL: DIVMTQSPASLSASVGETVTITCRASGNIHNYLTWYQQKQGKSPQLLVYNAKTLADGVPSRFSGSGSGPQYSLKINSLQPEDFGSYYCQHFWSVPYTFGGGTRLEIK |  | EC50 [2]: 12.7 nM

Second part, led by results:

Kd [1] [nM] | Binder | further results
6.31 | BG138P-Bz5 (antibody, human IgG1, V domains shown) VH: QVQLVQSGAEVKKPGASVKVSCKASGYTFTTYTMHWIKQAPGQGLEWIGYINPGSDYTHYNQKFKDRATLTADKSASTAYMELYSLRSEDTAVYYCARQGNYAAYYFDYWGQGTLVTVSS VL: DIQMTQSPSSLSASVGDRVTITCRASGNIHNFLVWYQQKPGKSPKLLVYNAKTLTDGVPSRFSGSGSGTQYSLTISSLQPEDVATYYCQNFWNVPFTFGSGTKLEIK | 
6.59 | BG138P-Bz0 (antibody, human IgG1, V domains shown) VH: QVQLVQSGAEVKKPGASVKVSCKASGYTFTTYTMHWIKQAPGQGLEWIGYINPGSDYTHYNQKFKDKATLTADKSASTAYMELYSLRSEDTAVYYCARQGNYAAYYFDYWGQGTLVTVSS VL: DIQMTQSPSSLSASVGDRVTITCRASGNIHNFLVWYQQKPGKSPKLLVYNAKTLTDGVPSRFSGSGSGTQYSLTISSLQPEDVATYYCQNFWNVPFTFGSGTKLEIK | 
6.56 | BG138P-Bz12 (antibody, human IgG1, V domains shown) VH: QVQLVQSGAEVKKPGASVKVSCKASGYTFTTYTMHWIKQAPGQGLEWIGYINPGSDYTHYNQKFKDKATLTADKSASTAYMELYSLRSEDTAVYYCARQGNYAAYYFDYWGQGTLVTVSS VL: DIQMTQSPSSLSASVGDRVTITCRASGNIHNFLVWYQQKPGKSPKLLIYNAKTLTDGVPSRFSGSGSGTQYSLTISSLQPEDVATYYCQNFWNVPFTFGSGTKLEIK | 
9.04 | BG138P-Bz3 (antibody, human IgG1, V domains shown) VH: QVQLVQSGAEVKKPGASVKVSCKASGYTFTTYTMHWIKQAPGQRLEWIGYINPGSDYTHYNQKFKDKATLTADKSASTAYMELYSLRSEDTAVYYCARQGNYAAYYFDYWGQGTLVTVSS VL: DIQMTQSPSSLSASVGDRVTITCRASGNIHNFLVWYQQKPGKSPKLLVYNAKTLTDGVPSRFSGSGSGTQYSLTISSLQPEDVATYYCQNFWNVPFTFGSGTKLEIK | 
13.5 | BG138P-Bz8 (antibody, human IgG1, V domains shown) VH: QVQLVQSGAEVKKPGASVKVSCKASGYTFTTYTMHWIKQAPGQGLEWIGYINPGSDYTHYNQKFKDKATLTRDKSASTAYMELYSLRSEDTAVYYCARQGNYAAYYFDYWGQGTLVTVSS VL: DIQMTQSPSSLSASVGDRVTITCRASGNIHNFLVWYQQKPGKSPKLLVYNAKTLTDGVPSRFSGSGSGTQYSLTISSLQPEDVATYYCQNFWNVPFTFGSGTKLEIK | 
6.7 | BG138P-Bz13 (antibody, human IgG1, V domains shown) VH: QVQLVQSGAEVKKPGASVKVSCKASGYTFTTYTMHWIKQAPGQGLEWIGYINPGSDYTHYNQKFKDKATLTADKSASTAYMELYSLRSEDTAVYYCARQGNYAAYYFDYWGQGTLVTVSS VL: DIQMTQSPSSLSASVGDRVTITCRASGNIHNFLVWYQQKPGKSPKLLVYNAKTLTDGVPSRFSGSGSGTDYSLTISSLQPEDVATYYCQNFWNVPFTFGSGTKLEIK | 
6.79 | BG138P-Bz6 (antibody, human IgG1, V domains shown) VH: QVQLVQSGAEVKKPGASVKVSCKASGYTFTTYTMHWIKQAPGQGLEWIGYINPGSDYTHYNQKFKDKVTLTADKSASTAYMELYSLRSEDTAVYYCARQGNYAAYYFDYWGQGTLVTVSS VL: DIQMTQSPSSLSASVGDRVTITCRASGNIHNFLVWYQQKPGKSPKLLVYNAKTLTDGVPSRFSGSGSGTQYSLTISSLQPEDVATYYCQNFWNVPFTFGSGTKLEIK | 
